Assay results as given in US20260250363A1.
Read-outs that look alike come from different tables or passages of the source.

How the values were obtained:
[1] = target: SARS-CoV-2 +E484K B.1.1.7 Spike Protein (R&D, Cat. #10824-CV) (SARS-CoV-2) (UniProt P0DTC2); test: direct ELISA on coated spike
[2] = target: SARS-CoV-2 +E484K B.1.1.7 Spike Protein (R&D, Cat. #10824-CV) (SARS-CoV-2) (UniProt P0DTC2); test: BLI (ForteBio), mAb on AHC sensor, spike in solution
[3] = target: SARS-CoV-2 +E484K B.1.1.7 Spike Protein (R&D, Cat. #10824-CV) (SARS-CoV-2) (UniProt P0DTC2); test: competition ELISA: blocks biotin-ACE2 binding to coated spike
[4] = target: SARS-CoV-2 +E484K B.1.1.7 Spike Protein (R&D, Cat. #10824-CV) (SARS-CoV-2) (UniProt P0DTC2); test: as above; remark: listed apart in the source

Substance | EC50 [1] | Kd [2] | IC50 [3] | IC50 [4]
Casirivimab (antibody) | 0.0584 nM | 3.4 nM | 3.3 nM | 3.13 nM
Imdevimab (antibody) | 0.0505 nM | 0.831 nM | – | –
